The supplement of paper PMC6757056
± gives the standard deviation of the averaged measurements.

B1: library; a variant is named by its letters at N, in order (parent)
chain: GCUGUCACCGGUGCUUGGUACGUUAUAUUCAGCCGGUCUGAUGAGUCUNNNNNNAGACGAAACAGC

Assays:
(6R,S)-folinic acid [1] = variants of: B1; test: normalized RNA/DNA level without ligand (relative to sTRSVctl = 100) (log10 (% of sTRSVctl)); HEK293T overexpressing SLC46A1; higher = less ribozyme self-cleavage, higher mRNA level; conditions: without (6R,S)-folinic acid; ligand present: no
How it was run: (§1)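 HEK293T cells received ligand, where used, 1 h before being transfected with 4 µg per 6-well well of library plasmids encoding reporter-linked ribozyme switches. After 72 h, RNA was extracted with EDTA and sequenced. RNA level was derived from RNA reads per DNA read, normalized to a spiked-in non-cleaving sequence or the top sequences, then scaled and log-transformed. Values were ×100 then log10, the top set was 25 sequences, and the minimum was 100 DNA reads.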

(6R,S)-folinic acid [2] = variants of: B1; test: normalized RNA/DNA level with ligand (relative to sTRSVctl = 100) (log10 (% of sTRSVctl)); HEK293T overexpressing SLC46A1; ligand concentration (+) RNA-Seq: 6 mM; higher = less ribozyme self-cleavage, higher mRNA level; conditions: with (6R,S)-folinic acid; ligand present: yes
How it was run: as §1

| Variant | normalized RNA/DNA level without ligand (log10) ((6R,S)-folinic acid [1]) | normalized RNA/DNA level with ligand (log10) ((6R,S)-folinic acid [2]) |
| --- | --- | --- |
| CUACUA | 2.02 ± 0.021 | 2.05 ± 0.04 |
| GCUAGA | 2.002 ± 0.0075 | 2.042 ± 0.012 |
| ACGUCG | 2 ± 0.022 | 2.06 ± 0.014 |
| ACGUCA | 2.037 ± 0.0081 | 2.027 ± 0.0046 |
| UCCUGA | 2.025 ± 0.0055 | 2.045 ± 0.018 |
| AUCCCU | 2.039 ± 0.0098 | 2.027 ± 0.012 |
| GCUCAG | 1.96 ± 0.0025 | 2.02 ± 0.03 |
| GAAUCC | 2.023 ± 0.0051 | 2.02 ± 0.061 |
| CCUGCC | 2.058 ± 0.0075 | 2 ± 0.068 |
| AGUUUU | 2.01 ± 0.027 | 1.98 ± 0.02 |
| GAGACG | 1.978 ± 0.014 | 2.031 ± 0.014 |
| CGAGGC | 2.03 ± 0.013 | 2.04 ± 0.031 |
| GCGACA | 2.024 ± 0.015 | 2.05 ± 0.03 |
| CAUUGU | 2.012 ± 0.0069 | 2.02 ± 0.064 |
| UAGACC | 2.039 ± 0.0018 | 2.013 ± 0.016 |
| GGAUUG | 1.996 ± 0.0084 | 2.05 ± 0.053 |
| CAACUA | 2.01 ± 0.023 | 2.01 ± 0.035 |
| CGUAGG | 1.829 ± 0.015 | 1.979 ± 0.013 |
| CGCUCC | 2.082 ± 0.015 | 2.057 ± 0.017 |
| GUAGGC | 1.881 ± 0.011 | 2.0344 ± 0.00079 |
| CGAAUC | 2.05 ± 0.019 | 2.03 ± 0.034 |
| GCACCG | 2.055 ± 0.0053 | 2.05 ± 0.061 |
| CUCGGA | 2.044 ± 0.0022 | 2.0131 ± 0.00036 |

| Variant | normalized RNA/DNA level without ligand (log10) ((6R,S)-folinic acid [1]) | normalized RNA/DNA level with ligand (log10) ((6R,S)-folinic acid [2]) |
| --- | --- | --- |
| GACCGA | 2.09 ± 0.0085 | 2.033 ± 0.011 |
| GGUAUU | 2.002 ± 0.014 | 1.98 ± 0.032 |
| UGUUGU | 1.9049 ± 9.7e-05 | 2 ± 0.027 |
| ACGGUG | 1.924 ± 0.0096 | 2.003 ± 0.013 |
| AGUCUC | 2.03 ± 0.016 | 2.02 ± 0.041 |
| AUCGGC | 2.054 ± 0.013 | 2.02 ± 0.043 |
| GUCUCA | 2.0197 ± 0.0003 | 2.01 ± 0.027 |
| GUCUCC | 2.032 ± 0.015 | 2.024 ± 0.0098 |
| CUGCAU | 1.9723 ± 0.001 | 1.99 ± 0.044 |
| UUGAUA | 1.978 ± 0.0072 | 2.03 ± 0.029 |
| AACGAC | 2.017 ± 0.013 | 1.991 ± 0.019 |
| CUGACC | 2.05 ± 0.017 | 2.01 ± 0.033 |
| UCGGGG | 1.86 ± 0.027 | 1.99 ± 0.039 |
| AACCAC | 2.007 ± 0.0059 | 1.963 ± 0.015 |
| CAAGUG | 2 ± 0.028 | 1.98 ± 0.046 |
| UGCUGC | 2.038 ± 0.018 | 2.01 ± 0.049 |
| AGAAGC | 2.004 ± 0.0023 | 2.049 ± 0.016 |
| CGGGUG | 1.976 ± 0.0081 | 2.01 ± 0.047 |
| CCGCUC | 2.112 ± 0.0092 | 2.09 ± 0.081 |
| GGGGUU | 2.014 ± 0.0056 | 2.02 ± 0.034 |
| CACGUC | 2.023 ± 0.0096 | 1.987 ± 0.013 |
| CGUUGA | 2.013 ± 0.013 | 2.016 ± 0.0024 |
| CGCGGG | 1.938 ± 0.017 | 2.039 ± 0.01 |

| Variant | normalized RNA/DNA level without ligand (log10) ((6R,S)-folinic acid [1]) | normalized RNA/DNA level with ligand (log10) ((6R,S)-folinic acid [2]) |
| --- | --- | --- |
| GUGUUC | 2.01 ± 0.031 | 2.012 ± 0.0073 |
| GUGUUU | 2.03 ± 0.027 | 2.05 ± 0.036 |
| GUACGU | 1.986 ± 0.006 | 2.03 ± 0.049 |
| AGUGUG | 1.78 ± 0.018 | 1.97 ± 0.01 |
| CCAAUA | 1.994 ± 0.0075 | 2 ± 0.036 |
| AACGUC | 2.066 ± 0.014 | 2.04 ± 0.021 |
| CAUACG | 1.987 ± 0.0082 | 2 ± 0.023 |
| UGUCUU | 1.978 ± 0.016 | 2.03 ± 0.022 |
| CUUAGG | 2.041 ± 0.018 | 2.052 ± 0.014 |
| CUUAGA | 2.03 ± 0.01 | 2.04 ± 0.029 |
| UUCGCC | 2.017 ± 0.0095 | 2.01 ± 0.025 |
| UUCGCA | 1.988 ± 0.016 | 2 ± 0.048 |
| AAUGGC | 1.997 ± 0.012 | 2.029 ± 0.019 |
| AGGGCG | 1.962 ± 0.008 | 2.02 ± 0.027 |
| GGAUAG | 1.95 ± 0.0034 | 2.03 ± 0.038 |
| GCACGG | 1.997 ± 0.016 | 2.006 ± 0.018 |
| UAUGCA | 1.95 ± 0.027 | 2.01 ± 0.021 |
| UCAGGC | 2.031 ± 0.003 | 2.03 ± 0.057 |
| UGAGCA | 1.95 ± 0.014 | 2.0212 ± 0.00076 |
| UUUCCC | 2.043 ± 0.0052 | 2.02 ± 0.075 |
| ACCAGG | 1.9569 ± 0.0006 | 2 ± 0.024 |
| UUCCUA | 2.022 ± 0.0051 | 2.033 ± 0.011 |
| CAUAAG | 1.95 ± 0.035 | 2.03 ± 0.035 |

| Variant | normalized RNA/DNA level without ligand (log10) ((6R,S)-folinic acid [1]) | normalized RNA/DNA level with ligand (log10) ((6R,S)-folinic acid [2]) |
| --- | --- | --- |
| UCACGU | 1.98 ± 0.036 | 2.01 ± 0.03 |
| CUCCUA | 2.02 ± 0.023 | 2.01 ± 0.033 |
| CAUCCU | 2.06 ± 0.013 | 2.08 ± 0.058 |
| CCGCAA | 1.986 ± 0.018 | 2 ± 0.042 |
| AUCUAC | 2.013 ± 0.0088 | 2.03 ± 0.039 |
| CCAAAC | 2.017 ± 0.015 | 2.03 ± 0.044 |
| AGGACC | 2.029 ± 0.0033 | 1.99 ± 0.043 |
| AGGACA | 1.989 ± 0.0041 | 2.02 ± 0.038 |
| CGCACG | 2.046 ± 0.0062 | 2.026 ± 0.018 |
| CGCACU | 2.0385 ± 0.00015 | 2.01 ± 0.034 |
| CUCCAG | 2.033 ± 0.011 | 2.0495 ± 0.00031 |
| CUAUAU | 2 ± 0.033 | 2.03 ± 0.063 |
| AGCUGU | 2.039 ± 0.012 | 2.032 ± 0.016 |
| GACGUU | 2 ± 0.022 | 2.01 ± 0.045 |
| GACUGA | 2.03 ± 0.02 | 2 ± 0.025 |
| UUGCAC | 2.008 ± 0.015 | 2.02 ± 0.026 |
| CAUUUC | 2.036 ± 0.0064 | 2 ± 0.037 |
| GUGCUU | 2.037 ± 0.0067 | 2.039 ± 0.015 |
| GAAUAG | 1.9357 ± 0.0015 | 2.01 ± 0.042 |
| AGCAAC | 2.004 ± 0.0095 | 2.01 ± 0.038 |
| GGCUAG | 2.063 ± 0.0075 | 2.042 ± 0.004 |
| ACGUUG | 1.936 ± 0.0063 | 2.03 ± 0.043 |
| CACAGC | 1.978 ± 0.0044 | 1.96 ± 0.021 |

| Variant | normalized RNA/DNA level without ligand (log10) ((6R,S)-folinic acid [1]) | normalized RNA/DNA level with ligand (log10) ((6R,S)-folinic acid [2]) |
| --- | --- | --- |
| AAAAGU | 1.94 ± 0.013 | 2 ± 0.041 |
| AUAUUU | 2.008 ± 0.0083 | 2.02 ± 0.027 |
| GGUCCG | 2.04 ± 0.018 | 2.03 ± 0.03 |
| UGCACA | 1.97 ± 0.024 | 2.01 ± 0.036 |
| AUAAGA | 1.971 ± 0.0094 | 2.01 ± 0.034 |
| GUAACU | 2.03 ± 0.016 | 2.03 ± 0.036 |
| CGCCGG | 2.03 ± 0.026 | 2.034 ± 0.017 |
| CGCCUC | 2.039 ± 0.0057 | 1.992 ± 0.015 |
| CGCCUG | 2.057 ± 0.011 | 2.056 ± 0.002 |
| ACUGUA | 1.9633 ± 7.1e-05 | 2.026 ± 0.014 |
| GGGCUU | 2.143 ± 0.0064 | 2.1 ± 0.027 |
| CACCCG | 2.018 ± 0.0098 | 2.01 ± 0.031 |
| AGACGG | 1.934 ± 0.011 | 2.01 ± 0.027 |
| CUGCGA | 2.053 ± 0.0059 | 2.06 ± 0.037 |
| CUGCGG | 2.052 ± 0.0072 | 2.066 ± 0.0066 |
| GCCAAU | 2.001 ± 0.0032 | 2 ± 0.053 |
| AGAUGU | 1.971 ± 0.0095 | 2.02 ± 0.036 |
| UUGUGU | 2.03 ± 0.011 | 2.05 ± 0.031 |
| UUGUGC | 2.018 ± 0.0046 | 2.053 ± 0.02 |
| CGACUA | 2.014 ± 0.0047 | 2.042 ± 0.0086 |
| ACGGCC | 2.117 ± 0.009 | 2.06 ± 0.056 |
| GGUUGG | 2.042 ± 0.016 | 2.03 ± 0.031 |
| GGUUGU | 2.023 ± 0.0028 | 2.04 ± 0.051 |
